B1: library; numbered along this chain (parent)
chain: MRKPRAAVGSGHRKQAASQEGRQKHAKNNSQAKPSACDGLARQPEEVVLQASVSSYHLFRDVAEVTAFRGSLLSWYDQEKRDLPWRRRAEDEMDLDRRAYAVWVSEVMLQQTQVATVINYYTGWMQKWPTLQDLASASLEEVNQLWAGLGYYSRGRRLQEGARKVVEELGGHMPRTAETLQQLLPGVGRYTAGAIASIAFGQATGVVDGNVARVLCRVRAIGADPSSTLVSQQLWGLAQQLVDPARPGDFNQAAMELGATVCTPQRPLCSQCPVESLCRARQRVEQEQLLASGSLSGSPDVEECAPNTGQCHLCLPPSEPWDQTLGVVNFPRKASRKPPREESSATCVLEQPGALGAQILLVQRPNSGLLAGLWEFPSVTWEPSEQLQRKALLQELQRWAGPLPATHLRHLGEVVHTFSHIKLTYQVYGLALEGQTPVTTVPPGARWLTQEEFHTAAVSTAMKKVFRVYQGQQPGTCMGSKRSQVSSPCSRKKPRMGQQVLDNFFRSHISTDAHSLNSAAQ

Variants of: B1
Test: 8OG:A repair function score (normalized; synonymous = 0, nonsense = -1) (normalized log-likelihood score); higher = more repair activity (WT-like)
Conditions: with 8OG:A DNA repair reporter (GFP) in HEK-293 MUTYH KO cells
Method: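 Saturation mutagenesis (NNN codon scan) of the MUTYH cDNA (521-aa nuclear isoform NM_001048174.1 / NP_001041639), stably expressed under doxycycline induction in HEK-293 MUTYH knockout cells. Cells were co-transfected with an 8OG:A-bearing GFP repair reporter plus mCherry and sorted 72 h later into GFP+ and GFP− bins, three replicates per tile. The Rosace log2 enrichment (GFP+ vs GFP−) was converted per tile to a normalized function score with synonymous variants centered at 0 and nonsense variants (codons 1-471) at -1; low-abundance variants were removed.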

Variant | 8OG:A repair function score
MRKPRAAVGSGHRKQAASQEGRQKHAKNNSQAKPSACDGLARQPEEVVLQASKSSYHLFRDVAEVTAFRGSLLSWYDQEKRDLPWRRRAEDEMDLDRRAYAVWVSEVMLQQTQVATVINYYTGWMQKWPTLQDLASASLEEVNQLWAGLGYYSRGRRLQEGARKVVEELGGHMPRTAETLQQLLPGVGRYTAGAIASIAFGQATGVVDGNVARVLCRVRAIGADPSSTLVSQQLWGLAQQLVDPARPGDFNQAAMELGATVCTPQRPLCSQCPVESLCRARQRVEQEQLLASGSLSGSPDVEECAPNTGQCHLCLPPSEPWDQTLGVVNFPRKASRKPPREESSATCVLEQPGALGAQILLVQRPNSGLLAGLWEFPSVTWEPSEQLQRKALLQELQRWAGPLPATHLRHLGEVVHTFSHIKLTYQVYGLALEGQTPVTTVPPGARWLTQEEFHTAAVSTAMKKVFRVYQGQQPGTCMGSKRSQVSSPCSRKKPRMGQQVLDNFFRSHISTDAHSLNSAAQ [V53K] | -0.0093
MRKPRAAVGSGHRKQAASQEGRQKHAKNNSQAKPSACDGLARQPEEVVLQASQSSYHLFRDVAEVTAFRGSLLSWYDQEKRDLPWRRRAEDEMDLDRRAYAVWVSEVMLQQTQVATVINYYTGWMQKWPTLQDLASASLEEVNQLWAGLGYYSRGRRLQEGARKVVEELGGHMPRTAETLQQLLPGVGRYTAGAIASIAFGQATGVVDGNVARVLCRVRAIGADPSSTLVSQQLWGLAQQLVDPARPGDFNQAAMELGATVCTPQRPLCSQCPVESLCRARQRVEQEQLLASGSLSGSPDVEECAPNTGQCHLCLPPSEPWDQTLGVVNFPRKASRKPPREESSATCVLEQPGALGAQILLVQRPNSGLLAGLWEFPSVTWEPSEQLQRKALLQELQRWAGPLPATHLRHLGEVVHTFSHIKLTYQVYGLALEGQTPVTTVPPGARWLTQEEFHTAAVSTAMKKVFRVYQGQQPGTCMGSKRSQVSSPCSRKKPRMGQQVLDNFFRSHISTDAHSLNSAAQ [V53Q] | -0.0248
MRKPRAAVGSGHRKQAASQEGRQKHAKNNSQAKPSACDGLARQPEEVVLQASWSSYHLFRDVAEVTAFRGSLLSWYDQEKRDLPWRRRAEDEMDLDRRAYAVWVSEVMLQQTQVATVINYYTGWMQKWPTLQDLASASLEEVNQLWAGLGYYSRGRRLQEGARKVVEELGGHMPRTAETLQQLLPGVGRYTAGAIASIAFGQATGVVDGNVARVLCRVRAIGADPSSTLVSQQLWGLAQQLVDPARPGDFNQAAMELGATVCTPQRPLCSQCPVESLCRARQRVEQEQLLASGSLSGSPDVEECAPNTGQCHLCLPPSEPWDQTLGVVNFPRKASRKPPREESSATCVLEQPGALGAQILLVQRPNSGLLAGLWEFPSVTWEPSEQLQRKALLQELQRWAGPLPATHLRHLGEVVHTFSHIKLTYQVYGLALEGQTPVTTVPPGARWLTQEEFHTAAVSTAMKKVFRVYQGQQPGTCMGSKRSQVSSPCSRKKPRMGQQVLDNFFRSHISTDAHSLNSAAQ [V53W] | -0.276
MRKPRAAVGSGHRKQAASQEGRQKHAKNNSQAKPSACDGLARQPEEVVLQASTSSYHLFRDVAEVTAFRGSLLSWYDQEKRDLPWRRRAEDEMDLDRRAYAVWVSEVMLQQTQVATVINYYTGWMQKWPTLQDLASASLEEVNQLWAGLGYYSRGRRLQEGARKVVEELGGHMPRTAETLQQLLPGVGRYTAGAIASIAFGQATGVVDGNVARVLCRVRAIGADPSSTLVSQQLWGLAQQLVDPARPGDFNQAAMELGATVCTPQRPLCSQCPVESLCRARQRVEQEQLLASGSLSGSPDVEECAPNTGQCHLCLPPSEPWDQTLGVVNFPRKASRKPPREESSATCVLEQPGALGAQILLVQRPNSGLLAGLWEFPSVTWEPSEQLQRKALLQELQRWAGPLPATHLRHLGEVVHTFSHIKLTYQVYGLALEGQTPVTTVPPGARWLTQEEFHTAAVSTAMKKVFRVYQGQQPGTCMGSKRSQVSSPCSRKKPRMGQQVLDNFFRSHISTDAHSLNSAAQ [V53T] | -0.0126
MRKPRAAVGSGHRKQAASQEGRQKHAKNNSQAKPSACDGLARQPEEVVLQASRSSYHLFRDVAEVTAFRGSLLSWYDQEKRDLPWRRRAEDEMDLDRRAYAVWVSEVMLQQTQVATVINYYTGWMQKWPTLQDLASASLEEVNQLWAGLGYYSRGRRLQEGARKVVEELGGHMPRTAETLQQLLPGVGRYTAGAIASIAFGQATGVVDGNVARVLCRVRAIGADPSSTLVSQQLWGLAQQLVDPARPGDFNQAAMELGATVCTPQRPLCSQCPVESLCRARQRVEQEQLLASGSLSGSPDVEECAPNTGQCHLCLPPSEPWDQTLGVVNFPRKASRKPPREESSATCVLEQPGALGAQILLVQRPNSGLLAGLWEFPSVTWEPSEQLQRKALLQELQRWAGPLPATHLRHLGEVVHTFSHIKLTYQVYGLALEGQTPVTTVPPGARWLTQEEFHTAAVSTAMKKVFRVYQGQQPGTCMGSKRSQVSSPCSRKKPRMGQQVLDNFFRSHISTDAHSLNSAAQ [V53R] | 0.00694
MRKPRAAVGSGHRKQAASQEGRQKHAKNNSQAKPSACDGLARQPEEVVLQASPSSYHLFRDVAEVTAFRGSLLSWYDQEKRDLPWRRRAEDEMDLDRRAYAVWVSEVMLQQTQVATVINYYTGWMQKWPTLQDLASASLEEVNQLWAGLGYYSRGRRLQEGARKVVEELGGHMPRTAETLQQLLPGVGRYTAGAIASIAFGQATGVVDGNVARVLCRVRAIGADPSSTLVSQQLWGLAQQLVDPARPGDFNQAAMELGATVCTPQRPLCSQCPVESLCRARQRVEQEQLLASGSLSGSPDVEECAPNTGQCHLCLPPSEPWDQTLGVVNFPRKASRKPPREESSATCVLEQPGALGAQILLVQRPNSGLLAGLWEFPSVTWEPSEQLQRKALLQELQRWAGPLPATHLRHLGEVVHTFSHIKLTYQVYGLALEGQTPVTTVPPGARWLTQEEFHTAAVSTAMKKVFRVYQGQQPGTCMGSKRSQVSSPCSRKKPRMGQQVLDNFFRSHISTDAHSLNSAAQ [V53P] | -0.254
MRKPRAAVGSGHRKQAASQEGRQKHAKNNSQAKPSACDGLARQPEEVVLQASMSSYHLFRDVAEVTAFRGSLLSWYDQEKRDLPWRRRAEDEMDLDRRAYAVWVSEVMLQQTQVATVINYYTGWMQKWPTLQDLASASLEEVNQLWAGLGYYSRGRRLQEGARKVVEELGGHMPRTAETLQQLLPGVGRYTAGAIASIAFGQATGVVDGNVARVLCRVRAIGADPSSTLVSQQLWGLAQQLVDPARPGDFNQAAMELGATVCTPQRPLCSQCPVESLCRARQRVEQEQLLASGSLSGSPDVEECAPNTGQCHLCLPPSEPWDQTLGVVNFPRKASRKPPREESSATCVLEQPGALGAQILLVQRPNSGLLAGLWEFPSVTWEPSEQLQRKALLQELQRWAGPLPATHLRHLGEVVHTFSHIKLTYQVYGLALEGQTPVTTVPPGARWLTQEEFHTAAVSTAMKKVFRVYQGQQPGTCMGSKRSQVSSPCSRKKPRMGQQVLDNFFRSHISTDAHSLNSAAQ [V53M] | -0.112
MRKPRAAVGSGHRKQAASQEGRQKHAKNNSQAKPSACDGLARQPEEVVLQASISSYHLFRDVAEVTAFRGSLLSWYDQEKRDLPWRRRAEDEMDLDRRAYAVWVSEVMLQQTQVATVINYYTGWMQKWPTLQDLASASLEEVNQLWAGLGYYSRGRRLQEGARKVVEELGGHMPRTAETLQQLLPGVGRYTAGAIASIAFGQATGVVDGNVARVLCRVRAIGADPSSTLVSQQLWGLAQQLVDPARPGDFNQAAMELGATVCTPQRPLCSQCPVESLCRARQRVEQEQLLASGSLSGSPDVEECAPNTGQCHLCLPPSEPWDQTLGVVNFPRKASRKPPREESSATCVLEQPGALGAQILLVQRPNSGLLAGLWEFPSVTWEPSEQLQRKALLQELQRWAGPLPATHLRHLGEVVHTFSHIKLTYQVYGLALEGQTPVTTVPPGARWLTQEEFHTAAVSTAMKKVFRVYQGQQPGTCMGSKRSQVSSPCSRKKPRMGQQVLDNFFRSHISTDAHSLNSAAQ [V53I] | -0.0188
MRKPRAAVGSGHRKQAASQEGRQKHAKNNSQAKPSACDGLARQPEEVVLQASSSSYHLFRDVAEVTAFRGSLLSWYDQEKRDLPWRRRAEDEMDLDRRAYAVWVSEVMLQQTQVATVINYYTGWMQKWPTLQDLASASLEEVNQLWAGLGYYSRGRRLQEGARKVVEELGGHMPRTAETLQQLLPGVGRYTAGAIASIAFGQATGVVDGNVARVLCRVRAIGADPSSTLVSQQLWGLAQQLVDPARPGDFNQAAMELGATVCTPQRPLCSQCPVESLCRARQRVEQEQLLASGSLSGSPDVEECAPNTGQCHLCLPPSEPWDQTLGVVNFPRKASRKPPREESSATCVLEQPGALGAQILLVQRPNSGLLAGLWEFPSVTWEPSEQLQRKALLQELQRWAGPLPATHLRHLGEVVHTFSHIKLTYQVYGLALEGQTPVTTVPPGARWLTQEEFHTAAVSTAMKKVFRVYQGQQPGTCMGSKRSQVSSPCSRKKPRMGQQVLDNFFRSHISTDAHSLNSAAQ [V53S] | 0.00307
MRKPRAAVGSGHRKQAASQEGRQKHAKNNSQAKPSACDGLARQPEEVVLQASNSSYHLFRDVAEVTAFRGSLLSWYDQEKRDLPWRRRAEDEMDLDRRAYAVWVSEVMLQQTQVATVINYYTGWMQKWPTLQDLASASLEEVNQLWAGLGYYSRGRRLQEGARKVVEELGGHMPRTAETLQQLLPGVGRYTAGAIASIAFGQATGVVDGNVARVLCRVRAIGADPSSTLVSQQLWGLAQQLVDPARPGDFNQAAMELGATVCTPQRPLCSQCPVESLCRARQRVEQEQLLASGSLSGSPDVEECAPNTGQCHLCLPPSEPWDQTLGVVNFPRKASRKPPREESSATCVLEQPGALGAQILLVQRPNSGLLAGLWEFPSVTWEPSEQLQRKALLQELQRWAGPLPATHLRHLGEVVHTFSHIKLTYQVYGLALEGQTPVTTVPPGARWLTQEEFHTAAVSTAMKKVFRVYQGQQPGTCMGSKRSQVSSPCSRKKPRMGQQVLDNFFRSHISTDAHSLNSAAQ [V53N] | -0.0892
MRKPRAAVGSGHRKQAASQEGRQKHAKNNSQAKPSACDGLARQPEEVVLQASHSSYHLFRDVAEVTAFRGSLLSWYDQEKRDLPWRRRAEDEMDLDRRAYAVWVSEVMLQQTQVATVINYYTGWMQKWPTLQDLASASLEEVNQLWAGLGYYSRGRRLQEGARKVVEELGGHMPRTAETLQQLLPGVGRYTAGAIASIAFGQATGVVDGNVARVLCRVRAIGADPSSTLVSQQLWGLAQQLVDPARPGDFNQAAMELGATVCTPQRPLCSQCPVESLCRARQRVEQEQLLASGSLSGSPDVEECAPNTGQCHLCLPPSEPWDQTLGVVNFPRKASRKPPREESSATCVLEQPGALGAQILLVQRPNSGLLAGLWEFPSVTWEPSEQLQRKALLQELQRWAGPLPATHLRHLGEVVHTFSHIKLTYQVYGLALEGQTPVTTVPPGARWLTQEEFHTAAVSTAMKKVFRVYQGQQPGTCMGSKRSQVSSPCSRKKPRMGQQVLDNFFRSHISTDAHSLNSAAQ [V53H] | 0.00594
MRKPRAAVGSGHRKQAASQEGRQKHAKNNSQAKPSACDGLARQPEEVVLQASLSSYHLFRDVAEVTAFRGSLLSWYDQEKRDLPWRRRAEDEMDLDRRAYAVWVSEVMLQQTQVATVINYYTGWMQKWPTLQDLASASLEEVNQLWAGLGYYSRGRRLQEGARKVVEELGGHMPRTAETLQQLLPGVGRYTAGAIASIAFGQATGVVDGNVARVLCRVRAIGADPSSTLVSQQLWGLAQQLVDPARPGDFNQAAMELGATVCTPQRPLCSQCPVESLCRARQRVEQEQLLASGSLSGSPDVEECAPNTGQCHLCLPPSEPWDQTLGVVNFPRKASRKPPREESSATCVLEQPGALGAQILLVQRPNSGLLAGLWEFPSVTWEPSEQLQRKALLQELQRWAGPLPATHLRHLGEVVHTFSHIKLTYQVYGLALEGQTPVTTVPPGARWLTQEEFHTAAVSTAMKKVFRVYQGQQPGTCMGSKRSQVSSPCSRKKPRMGQQVLDNFFRSHISTDAHSLNSAAQ [V53L] | -0.024
